Test results as given in patent EP1638605B1 (Raptor Pharmaceutical, Inc., dated 2014).

B1: sLRP2, the entire second ligand-binding domain of human LRP1 (recombinant) (receptor, UniProt Q07954 806-1183, looked up)
chain: KCRVNNGGCSSLCLATPGSRQCACAEDQVLDADGVTCLANPSYVPPPQCQPGEFACANSRCIQERWKCDGDNDCLDNSDEAPALCHQHTCPSDRFKCENNRCIPNRWLCDGDNDCGNSEDESNATCSARTCPPNQFSCASGRCIPISWTCDLDDDCGDRSDESASCAYPTCFPLTQFTCNNGRCININWRCDNDNDCGDNSDEAGCSHSCSSTQFKCNSGRCIPEHWTCDGDNDCGDYSDETHANCTNQATRPPGGCHTDEFQCRLDGLCIPLRWRCDGDTDCMDSSDEKSCEGVTHVCDPSVKFGCKDSARCISKAWVCDGDNDCEDNSDEENCESLACRPPSHPCANNTSVCLPPDKLCDGNDDCGDGSDEGELCD
notes: also called immobilized LRP

Key:
[1] = target: mLRP/LRPTmMegT mini-receptor (fourth ligand binding and transmembrane domains of LRP1 with the C-terminal cytoplasmic tail of megalin) on MDCK cells (UniProt Q07954); test: cell-based or functional assay
Chain of mLRP/LRPTmMegT mini-receptor (fourth ligand binding and transmembrane domains of LRP1 with the C-terminal cytoplasmic tail of megalin) on MDCK cells (Q07954 3293-4444): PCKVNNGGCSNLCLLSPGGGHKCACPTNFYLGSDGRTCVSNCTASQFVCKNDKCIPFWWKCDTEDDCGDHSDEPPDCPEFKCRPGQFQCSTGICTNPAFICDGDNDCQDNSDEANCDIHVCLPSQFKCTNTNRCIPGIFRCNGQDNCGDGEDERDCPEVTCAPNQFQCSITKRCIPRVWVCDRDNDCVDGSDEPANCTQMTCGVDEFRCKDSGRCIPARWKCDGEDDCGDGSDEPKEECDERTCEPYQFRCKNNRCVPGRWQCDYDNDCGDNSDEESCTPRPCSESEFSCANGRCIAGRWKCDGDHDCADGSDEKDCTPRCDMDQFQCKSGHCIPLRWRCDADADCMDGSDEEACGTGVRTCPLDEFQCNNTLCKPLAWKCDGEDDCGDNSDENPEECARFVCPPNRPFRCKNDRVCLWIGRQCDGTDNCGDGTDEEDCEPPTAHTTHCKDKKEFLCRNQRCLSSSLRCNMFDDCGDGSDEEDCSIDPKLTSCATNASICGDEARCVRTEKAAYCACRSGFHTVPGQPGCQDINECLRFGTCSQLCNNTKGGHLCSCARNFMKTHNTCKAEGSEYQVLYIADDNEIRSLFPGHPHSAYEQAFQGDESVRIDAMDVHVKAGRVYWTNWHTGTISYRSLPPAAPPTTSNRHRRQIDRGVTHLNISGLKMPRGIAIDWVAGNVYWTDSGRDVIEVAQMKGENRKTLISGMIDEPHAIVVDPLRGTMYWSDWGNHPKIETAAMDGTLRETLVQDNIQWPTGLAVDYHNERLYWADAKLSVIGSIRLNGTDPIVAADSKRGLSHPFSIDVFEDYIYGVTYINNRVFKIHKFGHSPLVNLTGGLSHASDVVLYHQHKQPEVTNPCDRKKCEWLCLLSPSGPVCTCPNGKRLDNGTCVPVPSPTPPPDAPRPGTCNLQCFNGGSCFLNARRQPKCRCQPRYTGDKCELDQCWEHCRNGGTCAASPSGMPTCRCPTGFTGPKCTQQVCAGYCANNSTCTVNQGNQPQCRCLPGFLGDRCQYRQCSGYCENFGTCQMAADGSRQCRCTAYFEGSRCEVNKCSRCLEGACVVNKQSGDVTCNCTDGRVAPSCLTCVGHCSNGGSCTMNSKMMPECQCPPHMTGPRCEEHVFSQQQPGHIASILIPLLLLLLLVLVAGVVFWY

[2] = target: T1, recombinant human alpha-L-iduronidase (Aldurazyme) (human, UniProt P35475 27-653, limits assumed); test: ligand blot, sLRP2 (1 µg/well) on membrane, antibody detection
T1 construct: also called rhIDU; Recombinant human IDU
T1 sequence (looked up): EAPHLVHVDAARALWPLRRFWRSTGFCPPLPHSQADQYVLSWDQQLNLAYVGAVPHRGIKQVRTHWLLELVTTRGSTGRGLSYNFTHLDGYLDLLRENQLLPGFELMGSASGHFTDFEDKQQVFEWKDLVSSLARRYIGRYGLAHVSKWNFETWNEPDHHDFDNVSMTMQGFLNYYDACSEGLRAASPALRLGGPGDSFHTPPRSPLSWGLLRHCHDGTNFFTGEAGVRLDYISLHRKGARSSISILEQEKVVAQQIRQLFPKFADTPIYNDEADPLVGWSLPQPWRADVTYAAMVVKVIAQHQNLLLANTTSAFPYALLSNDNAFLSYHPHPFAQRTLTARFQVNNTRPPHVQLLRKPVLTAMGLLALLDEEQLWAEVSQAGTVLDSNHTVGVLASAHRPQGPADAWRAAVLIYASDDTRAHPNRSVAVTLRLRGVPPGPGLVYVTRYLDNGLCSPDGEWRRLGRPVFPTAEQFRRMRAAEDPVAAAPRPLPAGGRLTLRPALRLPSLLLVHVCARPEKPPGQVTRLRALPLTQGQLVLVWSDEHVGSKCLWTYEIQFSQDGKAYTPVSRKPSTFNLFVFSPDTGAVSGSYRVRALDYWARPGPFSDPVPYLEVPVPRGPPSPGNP

Molecule	apical-to-basolateral permeability coefficient of 125I-RAP across MEGt-transfected MDCK monolayers with excess unlabeled RAP at 2 µg/ml [1] [×10⁻⁶ cm/s]	apical-to-basolateral permeability coefficient of 125I-RAP across MEGt-transfected MDCK monolayers, 60 min [1] [×10⁻⁶ cm/s]	ratio of apical-to-basolateral to basolateral-to-apical permeability coefficient of 125I-RAP in MEGt-transfected MDCK cells [1] [fold]	binding result [2]
receptor-associated protein (RAP) (ligand)	6.3	18.1	460	
B1				no binding
